Where “and” joins values, the source holds several entries; their conditions need not be identical. Identical values can stand only once.
What was measured:
Orai (in HEK-293 cells) = Orai (in HEK-293 cells) (UniProt Q9U6B8); assay: native gel or EMSA
cross-linking = target: the molecule itself; assay: cross-linking
[1] = target: the molecule itself; assay: single-molecule photobleaching

Orai (in HEK-293 cells) (from UniProt Q9U6B8 1-351) (natural protein)
stoichiometry N (Orai (in HEK-293 cells)): 2

B1: HA-tagged Orai (natural protein)
chain: MSVWTTANNSGLETPTKSPITSSVPRAARSSAVITTGNHQQHHFQHVVAAAVAAATSVATGHQFQQQFPLHAHPHPQHHSNSPTGSGSNSNNSAGFQRTSISNSLLQFPPPPPPSSQNQAKPRGHHRTASSSMSQSGEDLHSPTYLSWRKLQLSRAKLKASSKTSALLSGFAMVAMVEVQLDHDTNVPPGMLIAFAICTTLLVAVHMLALMISTCILPNIETVCNLHSISLVHESPHERLHWYIETAWAFSTLLGLILFLLEIAILCWVKFYDLSPPAAWSACVVLIPVMIIFMAFAIHFYRSLVSHKYEVTVSGIRELEMLKEQMEQDHLEHHNNIRNNGMNYGASGDIV
stoichiometry N (cross-linking): 2

B2: GFP-Flag-Orai (in Xenopus oocytes) (natural protein)
chain: MSVWTTANNSGLETPTKSPITSSVPRAARSSAVITTGNHQQHHFQHVVAAAVAAATSVATGHQFQQQFPLHAHPHPQHHSNSPTGSGSNSNNSAGFQRTSISNSLLQFPPPPPPSSQNQAKPRGHHRTASSSMSQSGEDLHSPTYLSWRKLQLSRAKLKASSKTSALLSGFAMVAMVEVQLDHDTNVPPGMLIAFAICTTLLVAVHMLALMISTCILPNIETVCNLHSISLVHESPHERLHWYIETAWAFSTLLGLILFLLEIAILCWVKFYDLSPPAAWSACVVLIPVMIIFMAFAIHFYRSLVSHKYEVTVSGIRELEMLKEQMEQDHLEHHNNIRNNGMNYGASGDIV
stoichiometry N [1]: 2 and 4

From article PMC2597643 (Nature, 2008)
